Patent US20150259666

Target: Human PAI-1 (plasminogen activator inhibitor-1), P05121
Sequence (P05121 whole entry, looked up): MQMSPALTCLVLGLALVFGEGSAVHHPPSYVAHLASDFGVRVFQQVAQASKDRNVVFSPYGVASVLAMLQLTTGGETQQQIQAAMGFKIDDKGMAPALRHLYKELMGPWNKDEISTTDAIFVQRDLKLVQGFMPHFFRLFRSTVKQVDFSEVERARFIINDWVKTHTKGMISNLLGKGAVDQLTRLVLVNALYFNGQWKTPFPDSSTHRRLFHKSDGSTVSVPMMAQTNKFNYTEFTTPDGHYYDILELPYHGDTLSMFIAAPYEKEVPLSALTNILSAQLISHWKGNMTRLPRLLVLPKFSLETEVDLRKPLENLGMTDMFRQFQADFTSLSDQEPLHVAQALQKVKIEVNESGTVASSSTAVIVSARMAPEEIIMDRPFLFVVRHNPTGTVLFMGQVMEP

B1: full length t-PA (native human tissue plasminogen activator) (protein)
chain: SYQVICRDEKTQMIYQQHQSWLRPVLRSNRVEYCWCNSGRAQCHSVPVKSCSEPRCFNGGTCQQALYFSDFVCQCPEGFAGKCCEIDTRATCYEDQGISYRGTWSTAESGAECTNWNSSALAQKPYSGRRPDAIRLGLGNHNYCRNPDRDSKPWCYVFKAGKYSSEFCSTPACSEGNSDCYFGNGSAYRGTHSLTESGASCLPWNSMILIGKVYTAQNPSAQALGLGKHNYCRNPDGDAKPWCHVLKNRRLTWEYCDVPSCSTCGLRQYSQPQFRIKGGLFADIASHPWQAAIFAKHRRSPGERFLCGGILISSCWILSAAHCFQERFPPHHLTVILGRTYRVVPGEEEQKFEVEKYIVHKEFDDDTYDNDIALLQLKSDSSRCAQESSVVRTVCLPPADLQLPDWTECELSGYGKHEALSPFYSERLKEAHVRLYPSSRCTSQHLLNRTVTDNMLCAGDTRSGGPQANLHDACQGDSGGPLVCLNDGRMTLVGIISWGLGCGQKDVPGVYTKVTNYLDWIRDNMRP
- residual enzyme activity after 1 hour incubation with PAI-1 (PAI-1 resistance): Full length t-PA preserve the enzyme activity up to 54%
